Experimental data as given in the nanobody polyreactivity screen of Harvey et al. (2022).

Test: yeast display, Sf9 membrane polyspecificity reagent, FACS + sequencing; frameworks hold sequencing errors
Method in brief: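 Nanobodies came from a synthetic yeast display library in Saccharomyces cerevisiae BJ5465, induced with galactose for 36–48 hours and stained for 1 hour at 4 °C with 10% biotinylated, detergent-solubilized Sf9 membrane reagent. Cells were enriched on streptavidin microbeads and then FACS-sorted, with low and high (top ~1%) gates set on anti-HA fluorescence for expression and streptavidin fluorescence for reagent binding. Each polyreactivity label reflects the gate a clone came from. Genes were amplified by colony PCR, sequenced by MiSeq 2 × 250 and filtered by CDR length.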

Sequence	polyreactivity (PSR sort gate)
QVQLVESGGGLVQAGGSLRLSCAASGFIFKGNAMGWYRQAPGKERELVAAISYSGGSTYYADSVKGRFTISRDNAKNTVYLQMNSLKPEDTAVYYCAALRWYHYGYWGQGTQVNVSS	high polyreactivity
QVQLVESGGGLVQAGGSLRLSCAASGFIFKGYAMGWYRQAPGKERELVAAISQRGSSTYYADSVKGRFTISRDNAKNTVYLQMNSLKPEDTAVYYCNALRHSKLDYYSWGQGTQVTVSS	high polyreactivity
QVQLVESGGGLVQAGGSLRLSCAASGFIFKIYTMGWYRQAPGKERELVAAITRRGGRTFYADSVKGRFTISRDNAKNTVYLQMNSLKPEDTAVYYCNAGTKYGTYIATGALKHDYWGQGTQVTVSS	low polyreactivity
QVQLVESGGGLVQAGGSLRLSCAASGFIFKRYAMGWYRQAPGKEREFVAAISWGGGNTYYADSVKGRFTISRDNAKNTVYLQMNSLKPEDTAVYYCAKVTSALKYGYWGQGTQVTVSS	high polyreactivity
QVQLVESGGGLVQAGGSLRLSCAASGFIFKRYAMGWYRQAPGKERELVAAITLSGGDTYYADSVKGRFTISRDNAKNTVYLQMNSLKPEDTAVYYCAARYMSTRTLYYYWGQGTQVTVSS	high polyreactivity
QVQLVESGGGLVQAGGSLRLSCAASGFIFKRYSMGWYRQAPGKERELVAAITSGGSTHYADSVKGRFTISRDNAKNTVYLQMNSLKPEDTAVYYCATRRYKWGVRYDYWGQGTQVTVSS	high polyreactivity
QVQLVESGGGLVQAGGSLRLSCAASGFIFKSYAMGWYRQAPGKERELVAGITRRGGSTYYADSVKGRFTISRDNSKNSVYFQMISLKPEDTAVYYCNAGRKTADYDYWGQGTQVTVSS	high polyreactivity
QVQLVESGGGLVQAGGSLRLSCAASGFIFKSYTMGWYRQAPGKERELVADISKSGGSTYYADSVKGRFTISRDNAKNTVYLQMNSLKPEDTAVYYCNADIWLYVNNYSEYDYWGQGTQVTVSS	high polyreactivity
QVQLVESGGGLVQAGGSLRLSCAASGFIFLAYTMGWYRQAPGKERELVAAISASGGRTYYADSVKGRFTISRDNAKNTVYLQMNSLKPEDTAVYYCAAAGGRFIRYGYWGQGTQVTVSS	high polyreactivity
QVQLVESGGGLVQAGGSLRLSCAASGFIFLDYAMGWYRQAPGKERELVAAISSRGARTYYADSVKGRFTISRDNAKNTVYVQMNSLKPEDTAVYYCAARGPLDRYGYWGQGTQVTVSS	high polyreactivity
QVQLVESGGGLVQAGGSLRLSCAASGFIFLENDMGWYRQAPGKERELVASINSGSDTNYADSVKGRFTISRDNAKNTVYLQMNSLKPEDTAVYYCNASYNGVPARYDYWGQGTQVTVSS	low polyreactivity
QVQLVESGGGLVQAGGSLRLSCAASGFIFLETDKGWYRQAPGKERELVASINSGTNTYYADSLKGRFTISRDNAKNTVYVEMNSLKPEDSAVYYCNADDAYLVTQPYDDNYDYWGQGTQVTVSS	low polyreactivity
QVQLVESGGGLVQAGGSLRLSCAASGFIFLGNAMGWYRQAPGKERELVASISRGGSTNYADSVKGRFTISRDNAKNTVYLQMNSLKPEDTAVYYCAADLSDKFGYWGQGTQVTVSS	low polyreactivity
QVQLVESGGGLVQAGGSLRLSCAASGFIFLLNAMGWYRQAPGKERELVAAISWGGGSTYYADSVKGRFTISRDNAKNTVYLQMNSLKPEDTAVYYCAAKPGKTPLTGHRGPYDTGYGYWGQGTQVTVSS	low polyreactivity
QVQLVESGGGLVQAGGSLRLSCAASGFIFLPYFMAWYRQAHGKERELVAAISGVGGITYYADSVKGRFTISRDNAKNTVYLQMNSLKPEDTAVYYCAAESSYFVALNQFYTVEFYYWGQGTQVTVSS	low polyreactivity
QVQLVESGGGLVQAGGSLRLSCAASGFIFLQYADMGWYRQAPGKERELVAAISYIGGSTYYADSVKGRFTISRDNAKNTVYLQMNSLKPEDTAVYYCAAEYSTAFGEYYYWGQGTQVTVSS	high polyreactivity

Sequence	polyreactivity (PSR sort gate)
QVQLVESGGGLVQAGGSLRLSCAASGFIFLSYAMGRYRQAPGKERELVAAISGRGGSTYYADSVKGRFTISRDNAKNTVYLQMNSLKPEDTAVYYCAVRRYRFPPGDYWGQGTQVTVSS	high polyreactivity
QVQLVESGGGLVQAGGSLRLSCAASGFIFLYAMGWSRQAPRKERELVAAISWSDTSTYYADSVKGRFTISRDNAKNTVYLQMNSLIPEDTAVYFCNAETWNYGDFDYWGQGTQVTVSS	high polyreactivity
QVQLVESGGGLVQAGGSLRLSCAASGFIFLYYAMGWYRQAPGKERELVADSSRGADTKYADSVKGRFTISRDNAKNNVYLQMNSLKPVDTAVYYCAARTGWPRVGFQFPAHVGFDYWGQGTQVTVSS	low polyreactivity
QVQLVESGGGLVQAGGSLRLSCAASGFIFNAYAMGWYRQAPGKERELVAAISTRCSNTYYADSVKGRFTISRDNAMNTVFLQMNSLIPEDTAVYYCAARGYVTYSKSNYWGQGTQVTVSS	high polyreactivity
QVQLVESGGGLVQAGGSLRLSCAASGFIFNKYAMGWYRQAPGKERELVATIRRDGSTNYADSVKGRFTISRDNAKNTVYLQMNSLKPEDTAVYYCAVRPYYWSRDYYWGQGTQVTVSS	high polyreactivity
QVQLVESGGGLVQAGGSLRLSCAASGFIFNRNAMGWYRQAPGKEREFVAAISTRGAGTYYADSVKGRFTISRDNAKNTVYLQMNSLKPEDTAVYYCAADKFRYGYYNRYSKVGYDYWGQGTQVTVSS	high polyreactivity
QVQLVESGGGLVQAGGSLRLSCAASGFIFNRYAMGWYRQAPGKERELVAAISYRGGGTYYADSVKGRFTISRDNAKNTVYLQMNSLKPEDTAVYYCAADSSYYYPMDYWGQGTQVTVSS	high polyreactivity
QVQLVESGGGLVQAGGSLRLSCAASGFIFNRYAMGWYRQAPGKERELVADITGGSTYYADSVKGLFTISRDNAKNTVFLQMNSLKPEDTAVYYCAADVLRISTLLFRGPGFDSWGQGTQVTVSS	low polyreactivity
QVQLVESGGGLVQAGGSLRLSCAASGFIFNSYAMGWYRQAPGKERELVATITNGGTTNYADSVKGRFTLSRDNATITVYLQMNSLKPEDTAVYYCAAVGPSVYHEYDYWGQGTQVTVSS	low polyreactivity
QVQLVESGGGLVQAGGSLRLSCAASGFIFNYNTMGWYRQAPGKERELVAAITWSGVSTYADSVKGRFTISRDNAKNTVYLQMNSLKPEDTAVYYCAASPYQRESVYDFGYDYWGQGTQVTVSS	low polyreactivity
QVQLVESGGGLVQAGGSLRLSCAASGFIFNYYAMGWYRQAPGKEREFVAAITWRGGSTNYADSVKGRFTISRDNAKNTVYLQMNSLKPEDTAVYYCAAYSVWGGSYLALDYWGQGTQVTVSS	low polyreactivity
QVQLVESGGGLVQAGGSLRLSCAASGFIFNYYGMGWYRQAPGKERELVATISGSGGSTYYADSVKGRFTISRDNAKNTVYLQMNSLKPEDTAVYYCNRYPPVHNVGEAYGTLHGYYWGQGTQVTVSS	low polyreactivity
QVQLVESGGGLVQAGGSLRLSCAASGFIFNYYVMGWYRQAPGKERELVATISWRGGRTYYADSVKGRFTISRDNAKNTVYLQMKSLKPEDTAVFYCAKESYYFTRYDYWGQGTQVTVSS	low polyreactivity
QVQLVESGGGLVQAGGSLRLSCAASGFIFPANAMGWSRQAPGKERELVAAINYSGGSTYYADSVKGRFTISRDNAKNTVYLQMNSLKPEDTAVYYCNADFYVVGVTTVDLSGYDSWGQGTQVTVSS	low polyreactivity
QVQLVESGGGLVQAGGSLRLSCAASGFIFPAYAMGWYRQAPGKERELVAAITSNGGSTYYADSVKGRFTITRDNAKNTVYLQMNSLKPEDTAVYYCNADWYWDYGWVYPEYYYWGQGTQVTVSS	high polyreactivity
